Laboratory results taken from patent US20210008162A1 (OP T, published 2021).
Where no end group is shown, it is not given here.

What was measured:
[1] = biological target: T1, mouse CD40 on cells (CD40+ T cells / Th40 cells and B cells of NOD mice; mouse CD4+CD40+ cells in culture) (mouse, UniProt P27512 20-289); test: KGYY-15 bound to live CD4+CD40+ cells kept in culture for 10 days, percent bound over days post treatment; the text says 'human or mouse' cells
T1 construct: whole, on cells; The target is inferred from CD40+ cells; No purified CD40 was tested; also called CD40 protein
T1 sequence (looked up): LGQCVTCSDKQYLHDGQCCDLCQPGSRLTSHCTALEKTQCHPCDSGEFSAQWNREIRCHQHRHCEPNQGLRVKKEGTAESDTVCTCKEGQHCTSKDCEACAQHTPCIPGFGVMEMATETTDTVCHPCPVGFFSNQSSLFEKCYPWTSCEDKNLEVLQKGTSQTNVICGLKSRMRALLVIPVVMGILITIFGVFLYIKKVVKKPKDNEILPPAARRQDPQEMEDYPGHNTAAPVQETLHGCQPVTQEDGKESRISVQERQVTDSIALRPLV

[2] = biological target: T2, human CD40 on CD4+CD40+ cells (human, UniProt P25942 21-277); test: as above
T2 construct: whole, on cells
T2 sequence (P25942 21-277): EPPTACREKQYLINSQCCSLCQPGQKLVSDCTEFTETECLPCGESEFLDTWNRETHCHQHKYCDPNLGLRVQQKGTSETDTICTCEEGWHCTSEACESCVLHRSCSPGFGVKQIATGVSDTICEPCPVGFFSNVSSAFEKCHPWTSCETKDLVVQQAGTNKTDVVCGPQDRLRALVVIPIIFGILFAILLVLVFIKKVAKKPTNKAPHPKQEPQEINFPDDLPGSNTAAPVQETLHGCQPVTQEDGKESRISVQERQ

Binder: VLQWAKKGYYTMKSN-NH2 (also called 15-mer-Form 1) [KGYY-15 (SEQ ID NO:11)]
- binding result [1]: binds
- binding result [2]: binds
